Test results taken from patent US20220339270A1 (published 2022).

Experiments:
[1] = biological target: T1, extracellular tau in the form of paired helical filaments (ePHF) (UniProt P10636-8 1-441, limits assumed); test: method not stated
T1 construct: Immobilised on 96-well plates for the ePHF tau ELISA; also called ePHF tau; PHF tau

[2] = biological target: T2, recombinant tau mutant protein tau441-T212A+S214A (phospho-Tau variant) (human, UniProt P10636 1-758, phosphorylated (phospho-Tau variant; kinase DYRK1A by the context)); test: PT3 ELISA with phospho-Tau variants
T2 construct: not shown: his tag (detected with anti-his antibody)

[3] = biological target: T3, recombinant tau mutant protein tau441-T212A+T217A (phospho-Tau variant) (human, UniProt P10636 1-758, phosphorylated (phospho-Tau variant; kinase DYRK1A by the context)); test: PT3 ELISA with phospho-Tau variants
T3 construct: not shown: his tag (detected with anti-his antibody)

[4] = biological target: T4, recombinant tau mutant protein tau441-T217A+T231A (phospho-Tau variant) (human, UniProt P10636 1-758, phosphorylated (phospho-Tau variant; kinase DYRK1A by the context)); test: PT3 ELISA with phospho-Tau variants
T4 construct: not shown: his tag (detected with anti-his antibody)

[5] = biological target: T5, recombinant tau mutant protein tau441-T212A+T231A (phospho-Tau variant) (human, UniProt P10636 1-758, phosphorylated (phospho-Tau variant; kinase DYRK1A by the context)); test: PT3 ELISA with phospho-Tau variants
T5 construct: not shown: his tag (detected with anti-his antibody)

[6] = biological target: T6, recombinant tau mutant protein tau441-T212A+T217A+T231A (phospho-Tau variant) (human, UniProt P10636 1-758, phosphorylated (phospho-Tau variant; kinase DYRK1A by the context)); test: PT3 ELISA with phospho-Tau variants
T6 construct: not shown: his tag (detected with anti-his antibody)

[7] = biological target: T7, Phospho_Tau441_T212A (human, UniProt P10636 2-758, phosphorylated in vitro by DYRK1A; sites not determined); test: ELISA, PT3 immobilized, tau protein applied at 333 ng/mL
T7 construct: not shown: his tag added

[8] = biological target: T8, Tau441_T212A (human, UniProt P10636 2-758); test: as above
T8 construct: not phosphorylated; not shown: his tag added

[9] = biological target: T9, Phospho_Tau441_T202A (human, UniProt P10636 2-758, phosphorylated in vitro by DYRK1A; sites not determined); test: as above
T9 construct: the list of mutated sites gives S202; also called S202 mutant; not shown: his tag added

[10] = biological target: T10, Tau441_T202A (human, UniProt P10636 2-758); test: as above
T10 construct: not phosphorylated; printed T202A, the text gives S202; also called S202 mutant; not shown: his tag added

[11] = biological target: T11, Phospho_Tau441_S404A (human, UniProt P10636 2-758, phosphorylated in vitro by DYRK1A; sites not determined); test: as above
T11 construct: not shown: his tag added

[12] = biological target: T12, Tau441_S404A (human, UniProt P10636 2-758); test: as above
T12 construct: not phosphorylated; not shown: his tag added

[13] = biological target: T13, Phospho_Tau441_T181A (human, UniProt P10636 2-758, phosphorylated in vitro by DYRK1A; sites not determined); test: as above
T13 construct: not shown: his tag added

[14] = biological target: T14, Tau441_T181A (human, UniProt P10636 2-758); test: as above
T14 construct: not phosphorylated; not shown: his tag added

[15] = biological target: T15, Phospho_Tau441_S199A (human, UniProt P10636 2-758, phosphorylated in vitro by DYRK1A; sites not determined); test: as above
T15 construct: not shown: his tag added

[16] = biological target: T16, Tau441_S199A (human, UniProt P10636 2-758); test: as above
T16 construct: not phosphorylated; not shown: his tag added

[17] = biological target: T17, Phospho_Tau441_T205A (human, UniProt P10636 2-758, phosphorylated in vitro by DYRK1A; sites not determined); test: as above
T17 construct: not shown: his tag added

[18] = biological target: T18, Tau441_T205A (human, UniProt P10636 2-758); test: as above
T18 construct: not phosphorylated; not shown: his tag added

[19] = biological target: T19, Phospho_Tau441_T217A (human, UniProt P10636 2-758, phosphorylated in vitro by DYRK1A; sites not determined); test: as above
T19 construct: not shown: his tag added

[20] = biological target: T20, Tau441_T217A (human, UniProt P10636 2-758); test: as above
T20 construct: not phosphorylated; not shown: his tag added

[21] = biological target: T21, Phospho_Tau441_T231A (human, UniProt P10636 2-758, phosphorylated in vitro by DYRK1A; sites not determined); test: as above
T21 construct: not shown: his tag added

[22] = biological target: T22, Tau441_T231A (human, UniProt P10636 2-758); test: as above
T22 construct: not phosphorylated; not shown: his tag added

[23] = biological target: T23, Phospho_Tau441_S396A (human, UniProt P10636 2-758, phosphorylated in vitro by DYRK1A; sites not determined); test: as above
T23 construct: not shown: his tag added

[24] = biological target: T24, Tau441_S396A (human, UniProt P10636 2-758); test: as above
T24 construct: not phosphorylated; not shown: his tag added

[25] = biological target: T25, Phospho_Tau441_S400A (human, UniProt P10636 2-758, phosphorylated in vitro by DYRK1A; sites not determined); test: as above
T25 construct: not shown: his tag added

[26] = biological target: T26, Tau441_S400A (human, UniProt P10636 2-758); test: as above
T26 construct: not phosphorylated; not shown: his tag added

[27] = biological target: T27, Phospho_Tau441_S422A (human, UniProt P10636 2-758, phosphorylated in vitro by DYRK1A; sites not determined); test: as above
T27 construct: not shown: his tag added

[28] = biological target: T28, Tau441-T212A + T231A, phosphorylated in vitro by DYRK1A (human, UniProt P10636 1-758, phosphorylated in vitro by DYRK1A; occupied sites not determined individually); test: PT3 ELISA, 210 ng/mL DYRK1A-phosphorylated tau variant
T28 construct: His-tagged

[29] = biological target: T29, Tau441-T212A + T217A + T231A, phosphorylated in vitro by DYRK1A (human, UniProt P10636 1-758, phosphorylated in vitro by DYRK1A; occupied sites not determined individually); test: as above
T29 construct: His-tagged

[30] = biological target: T30, Wild-type Tau441, phosphorylated in vitro by DYRK1A (human, UniProt P10636 1-758); test: as above
T30 construct: Recombinant protein detected with an anti-his antibody; also called phospho-tau

[31] = biological target: T31, Tau441-T212A + S214A, phosphorylated in vitro by DYRK1A (human, UniProt P10636 1-758, phosphorylated in vitro by DYRK1A; occupied sites not determined individually); test: as above
T31 construct: His-tagged

[32] = biological target: T32, Tau441-T212A + T217A, phosphorylated in vitro by DYRK1A (human, UniProt P10636 1-758, phosphorylated in vitro by DYRK1A; occupied sites not determined individually); test: as above
T32 construct: His-tagged

[33] = biological target: T33, Tau441-T217A + T231A, phosphorylated in vitro by DYRK1A (human, UniProt P10636 1-758, phosphorylated in vitro by DYRK1A; occupied sites not determined individually); test: as above
T33 construct: His-tagged
T33 sequence (P10636 other isoform, or with tags, fused parts or gaps T217A T231A T217A T231A limits assumed): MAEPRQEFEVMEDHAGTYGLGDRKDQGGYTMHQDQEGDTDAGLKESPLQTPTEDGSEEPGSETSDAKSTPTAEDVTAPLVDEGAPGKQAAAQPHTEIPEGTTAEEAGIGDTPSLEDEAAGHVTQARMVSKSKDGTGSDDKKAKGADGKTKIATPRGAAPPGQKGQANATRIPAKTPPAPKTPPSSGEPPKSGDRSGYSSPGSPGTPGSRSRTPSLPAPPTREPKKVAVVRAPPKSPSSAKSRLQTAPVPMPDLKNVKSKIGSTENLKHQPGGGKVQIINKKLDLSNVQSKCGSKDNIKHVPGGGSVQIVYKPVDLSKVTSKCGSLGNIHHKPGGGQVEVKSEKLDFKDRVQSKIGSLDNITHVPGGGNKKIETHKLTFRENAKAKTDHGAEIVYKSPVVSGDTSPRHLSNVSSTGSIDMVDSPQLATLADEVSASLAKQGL

T27 sequence (P10636 other isoform, or with tags, fused parts or gaps S422A S422A): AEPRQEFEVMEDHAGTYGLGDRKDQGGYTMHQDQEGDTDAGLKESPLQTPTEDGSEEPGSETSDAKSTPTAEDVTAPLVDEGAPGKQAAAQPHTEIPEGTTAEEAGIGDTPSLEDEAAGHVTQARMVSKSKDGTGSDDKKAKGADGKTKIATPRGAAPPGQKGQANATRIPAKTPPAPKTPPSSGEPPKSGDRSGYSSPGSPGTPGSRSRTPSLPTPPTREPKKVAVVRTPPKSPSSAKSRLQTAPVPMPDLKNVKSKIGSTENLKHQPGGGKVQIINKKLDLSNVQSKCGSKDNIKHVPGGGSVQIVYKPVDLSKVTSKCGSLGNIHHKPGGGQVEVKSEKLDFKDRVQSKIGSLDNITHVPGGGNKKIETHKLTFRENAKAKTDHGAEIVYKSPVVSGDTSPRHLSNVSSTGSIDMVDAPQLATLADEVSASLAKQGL
T6 sequence (P10636 other isoform, or with tags, fused parts or gaps T212A T217A T231A T212A T217A T231A): as the sequence (P10636 other isoform, or with tags, fused parts or gaps T217A T231A T217A T231A limits assumed) above, with T212A counted along it
T29 sequence (P10636 other isoform, or with tags, fused parts or gaps T212A T217A T231A T212A T217A T231A limits assumed): as the sequence (P10636 other isoform, or with tags, fused parts or gaps T217A T231A T217A T231A limits assumed) above, with T212A counted along it
T4 sequence (P10636 other isoform, or with tags, fused parts or gaps T217A T231A T217A T231A): as the sequence (P10636 other isoform, or with tags, fused parts or gaps T217A T231A T217A T231A limits assumed) above
T31 sequence (P10636 other isoform, or with tags, fused parts or gaps T212A S214A T212A S214A limits assumed): as the sequence (P10636 other isoform, or with tags, fused parts or gaps T217A T231A T217A T231A limits assumed) above, with T212A, S214A, A217T, A231T counted along it
T2 sequence (P10636 other isoform, or with tags, fused parts or gaps T212A S214A T212A S214A): as the sequence (P10636 other isoform, or with tags, fused parts or gaps T217A T231A T217A T231A limits assumed) above, with T212A, S214A, A217T, A231T counted along it
T12 sequence (P10636 other isoform, or with tags, fused parts or gaps S404A S404A): as the sequence (P10636 other isoform, or with tags, fused parts or gaps S422A S422A) above, with S403A, A421S counted along it
T11 sequence (P10636 other isoform, or with tags, fused parts or gaps S404A S404A): as the sequence (P10636 other isoform, or with tags, fused parts or gaps S422A S422A) above, with S403A, A421S counted along it
T25 sequence (P10636 other isoform, or with tags, fused parts or gaps S400A S400A): as the sequence (P10636 other isoform, or with tags, fused parts or gaps S422A S422A) above, with S399A, A421S counted along it
T26 sequence (P10636 other isoform, or with tags, fused parts or gaps S400A S400A): as the sequence (P10636 other isoform, or with tags, fused parts or gaps S422A S422A) above, with S399A, A421S counted along it

B1: anti-tau antibody PT3 (antibody, V domains shown)
VH: EVKLVESGGDLVKPGGSLKLSCAASGFTFSSYAMSWVRQNPEKRLEWVASISKGGNTYYPNSVKGRFTISRDNARNILYLQMSSLRSEDTALYYCARGWGDYGWFAYWGQVTLVTVSA
VL: DIKMTQSPSSMYASLGERVTITCKASQDINRYLNWFQQKPGKSPKTLIYRANRLLDGVPSRFSGSGSGQDYSLTISSLDYEDMGIYYCLQYDEFPLTFGDGTKLELK
notes: also called purified PT3 antibody
Kd [1]: 0.018 nM
binding result [2]: no binding (tested: 210 ng/mL)
binding result [3]: no binding (tested: 210 ng/mL)
binding result [4]: no binding (tested: 210 ng/mL)
binding result [5]: no binding (tested: 210 ng/mL)
binding result [6]: no binding (tested: 210 ng/mL)

B2: anti-tau antibody PT3 (antibody, V domains shown)
VH: EVKLVESGGDLVKPGGSLKLSCAASGFTFSSYAMSWVRQNPEKRLEWVASISKGGNTYYPNSVKGRFTISRDNARNILYLQMSSLRSEDTALYYCARGWGDYGWFAYWGQVTLVTVSA
VL: DIKMTQSPSSMYASLGERVTITCKASQDINRYLNWFQQKPGKSPKTLIYRANRLLDGVPSRFSGSGSGQDYSLTISSLDYEDMGIYYCLQYDEFPLTFGDGTKLELK
OD450-570 [7]: 0
OD450-570 [8]: 0
OD450-570 [9]: 0.6
OD450-570 [10]: 0
OD450-570 [11]: 0.6
OD450-570 [12]: 0
OD450-570 [13]: 0.4
OD450-570 [14]: 0
OD450-570 [15]: 0.7
OD450-570 [16]: 0
OD450-570 [17]: 0.4
OD450-570 [18]: 0
OD450-570 [19]: 0
OD450-570 [20]: 0
OD450-570 [21]: 0.3
OD450-570 [22]: 0
OD450-570 [23]: 0.5
OD450-570 [24]: 0
OD450-570 [25]: 0.3
OD450-570 [26]: 0
OD450-570 [27]: 0.3

B3: anti-tau antibody PT3 (antibody, V domains shown)
VH: EVKLVESGGDLVKPGGSLKLSCAASGFTFSSYAMSWVRQNPEKRLEWVASISKGGNTYYPNSVKGRFTISRDNARNILYLQMSSLRSEDTALYYCARGWGDYGWFAYWGQVTLVTVSA
VL: DIKMTQSPSSMYASLGERVTITCKASQDINRYLNWFQQKPGKSPKTLIYRANRLLDGVPSRFSGSGSGQDYSLTISSLDYEDMGIYYCLQYDEFPLTFGDGTKLELK
OD450-570 [28]: 0.1 OD
OD450-570 [29]: 0 OD
OD450-570 [30]: 1.7 OD
OD450-570 [31]: 0.1 OD
OD450-570 [32]: 0 OD
OD450-570 [33]: 0.1 OD
